The data set concerns the target T1, QscR (Pseudomonas aeruginosa PAO1?) (UniProt G3XD77).
T1 sequence: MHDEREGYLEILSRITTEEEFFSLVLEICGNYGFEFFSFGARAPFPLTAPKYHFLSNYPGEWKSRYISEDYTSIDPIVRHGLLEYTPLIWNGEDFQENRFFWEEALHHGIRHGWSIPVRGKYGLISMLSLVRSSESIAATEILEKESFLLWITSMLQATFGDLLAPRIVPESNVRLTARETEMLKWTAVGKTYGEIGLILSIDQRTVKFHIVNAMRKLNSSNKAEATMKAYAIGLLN
The data set is described as follows: EMSA. The conditions noted are these: EMSA: 40 ng probe, 0-100 ng QscR in 10 ul; 20 mM Tris pH 7.5, 50 mM KCl, 10% glycerol, 1 mM DTT, 20 uM 3OC12-HSL; 20 min room temperature; 5% native gel at …. (In EMSA bound probe runs differently from free probe, usually more slowly.)

Two sequences from article PMC6113619 can be followed below.

As for “CTCTCGTGTGAAGCCATTGCTCTGATCTTTTCGGACGTTTCTTCGAGCCTAGCAAGGGTCCGGGTTCACCGAAATCTATCTCATTTGCTAGTTATAAAATTATGAAATTTGCATAAATTCTTCAGCTTCCTATTTGGAGGAAGTGAAGATGATCGTACAAATTGGTCGGCGCGAAGAGTTCGATAAAAAACTGCTGGGCGAGATGCACAAGTTGCGTGCTCAAGTGTTC (double strand) [lasI promoter PCR fragment]”, the binding result is on record as “no binding”. The same measure for “GCTTCACCGAGCAGAACTCCGGGCTGATCTACCGCGGGCAATCAGGCGGAATGAACGAAGCGTTCTCCGACATGGCCGGCGAGGCTGCCGAGTTCTATATGCGCGGCAAGAACGACTTCCTGATCGGCTACGACATCAAGAAGGGCAGCGGTGCGCTGCGCTACATGGACCAGCCCAGCC (double strand) [lasB promoter PCR fragment]”: “no binding”.
